From US20240076360A1 (University of Pennsylvania, published 2024) come the findings set out here.

The target in one assay is T1, rat C5 (rat, UniProt P08650 19-1681, limits assumed).
T1 construct: also called recombinant rat C5 protein
The experiment in a line: ELISA, wells coated with recombinant C5 (3 ug/ml), serially diluted antibody, detection with HRP anti-IgG4 Fc, OD450. Here is the method:
(§1) ELISA wells were coated with recombinant C5 protein of relevant species (3 μg/ml in coating buffer, 100 μl/well, 4° C. overnight). […] Sheep RBC lysis assay was performed as described in Example 3, using 5-20% cynomolgus monkey serum.

In a further assay the target is T2, mouse C5 (mouse, UniProt P06684 19-1680, limits assumed).
T2 construct: also called recombinant mouse C5 protein
T2 sequence (P06684 19-1680 limits assumed): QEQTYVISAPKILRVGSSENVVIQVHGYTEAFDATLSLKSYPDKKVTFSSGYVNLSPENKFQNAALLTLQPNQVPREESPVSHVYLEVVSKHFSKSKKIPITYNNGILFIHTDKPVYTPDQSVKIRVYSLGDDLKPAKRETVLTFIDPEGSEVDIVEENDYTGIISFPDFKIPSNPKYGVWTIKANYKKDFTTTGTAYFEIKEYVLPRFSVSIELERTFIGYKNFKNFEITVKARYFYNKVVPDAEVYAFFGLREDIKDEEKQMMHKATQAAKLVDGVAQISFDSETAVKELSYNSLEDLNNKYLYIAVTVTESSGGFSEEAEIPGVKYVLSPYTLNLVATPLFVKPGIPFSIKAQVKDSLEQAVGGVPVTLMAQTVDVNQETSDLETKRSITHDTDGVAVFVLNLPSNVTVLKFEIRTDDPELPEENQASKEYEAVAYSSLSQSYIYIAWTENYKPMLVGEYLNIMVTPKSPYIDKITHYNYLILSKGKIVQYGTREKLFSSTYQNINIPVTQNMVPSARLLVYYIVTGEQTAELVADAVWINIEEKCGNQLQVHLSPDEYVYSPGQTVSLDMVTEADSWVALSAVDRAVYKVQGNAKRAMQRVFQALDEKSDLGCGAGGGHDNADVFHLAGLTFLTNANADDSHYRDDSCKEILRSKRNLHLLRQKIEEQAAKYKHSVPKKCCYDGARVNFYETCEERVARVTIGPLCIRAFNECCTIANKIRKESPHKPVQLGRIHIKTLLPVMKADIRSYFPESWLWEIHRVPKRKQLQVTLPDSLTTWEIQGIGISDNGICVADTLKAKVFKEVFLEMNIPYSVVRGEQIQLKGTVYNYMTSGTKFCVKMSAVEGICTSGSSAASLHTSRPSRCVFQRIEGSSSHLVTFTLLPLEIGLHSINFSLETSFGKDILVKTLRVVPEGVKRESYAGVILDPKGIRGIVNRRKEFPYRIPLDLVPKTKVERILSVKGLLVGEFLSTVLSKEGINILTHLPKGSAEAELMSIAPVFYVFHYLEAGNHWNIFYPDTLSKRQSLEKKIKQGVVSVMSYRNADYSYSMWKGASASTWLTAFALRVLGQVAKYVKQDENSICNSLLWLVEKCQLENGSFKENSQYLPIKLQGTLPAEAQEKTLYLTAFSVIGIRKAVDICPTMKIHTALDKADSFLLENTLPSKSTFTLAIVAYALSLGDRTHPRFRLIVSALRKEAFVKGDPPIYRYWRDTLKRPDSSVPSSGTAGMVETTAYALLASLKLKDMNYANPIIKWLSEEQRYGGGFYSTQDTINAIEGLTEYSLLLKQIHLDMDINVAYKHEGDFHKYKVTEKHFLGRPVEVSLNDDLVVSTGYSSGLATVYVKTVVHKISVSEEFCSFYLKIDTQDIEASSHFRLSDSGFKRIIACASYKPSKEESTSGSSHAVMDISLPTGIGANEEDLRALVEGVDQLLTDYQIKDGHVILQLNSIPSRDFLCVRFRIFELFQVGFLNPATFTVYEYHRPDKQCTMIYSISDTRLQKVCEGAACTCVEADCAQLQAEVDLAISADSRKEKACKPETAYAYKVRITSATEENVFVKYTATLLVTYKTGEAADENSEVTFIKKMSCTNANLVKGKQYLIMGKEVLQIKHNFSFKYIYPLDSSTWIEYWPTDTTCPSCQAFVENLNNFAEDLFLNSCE
The description is as above. Here is the method: as §1

The target in the next assay is T3, rabbit C5 (rabbit, UniProt G1SPF9 19-673; G1SPF9 678-1675).
T3 construct: also called recombinant rabbit C5 protein
T3 sequence (beta, as listed by the source limits assumed, chain 1 of 2): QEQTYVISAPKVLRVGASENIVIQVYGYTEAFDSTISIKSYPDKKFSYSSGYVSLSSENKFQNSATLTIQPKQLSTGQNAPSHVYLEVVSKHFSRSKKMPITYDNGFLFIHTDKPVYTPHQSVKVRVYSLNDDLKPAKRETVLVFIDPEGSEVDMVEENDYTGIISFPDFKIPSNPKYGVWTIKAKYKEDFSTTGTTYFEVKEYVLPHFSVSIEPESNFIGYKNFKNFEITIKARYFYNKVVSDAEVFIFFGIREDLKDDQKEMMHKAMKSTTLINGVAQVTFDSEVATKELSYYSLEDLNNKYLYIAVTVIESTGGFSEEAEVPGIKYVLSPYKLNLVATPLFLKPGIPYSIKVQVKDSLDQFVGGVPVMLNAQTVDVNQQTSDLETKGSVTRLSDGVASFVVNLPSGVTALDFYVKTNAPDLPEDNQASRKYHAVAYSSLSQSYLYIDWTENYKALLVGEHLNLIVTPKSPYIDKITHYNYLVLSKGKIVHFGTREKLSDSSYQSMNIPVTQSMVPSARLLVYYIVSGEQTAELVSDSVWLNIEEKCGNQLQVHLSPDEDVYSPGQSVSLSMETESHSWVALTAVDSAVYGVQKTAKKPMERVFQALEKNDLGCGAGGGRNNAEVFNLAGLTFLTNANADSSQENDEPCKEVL
T3 sequence (alpha, as listed by the source limits assumed, chain 2 of 2): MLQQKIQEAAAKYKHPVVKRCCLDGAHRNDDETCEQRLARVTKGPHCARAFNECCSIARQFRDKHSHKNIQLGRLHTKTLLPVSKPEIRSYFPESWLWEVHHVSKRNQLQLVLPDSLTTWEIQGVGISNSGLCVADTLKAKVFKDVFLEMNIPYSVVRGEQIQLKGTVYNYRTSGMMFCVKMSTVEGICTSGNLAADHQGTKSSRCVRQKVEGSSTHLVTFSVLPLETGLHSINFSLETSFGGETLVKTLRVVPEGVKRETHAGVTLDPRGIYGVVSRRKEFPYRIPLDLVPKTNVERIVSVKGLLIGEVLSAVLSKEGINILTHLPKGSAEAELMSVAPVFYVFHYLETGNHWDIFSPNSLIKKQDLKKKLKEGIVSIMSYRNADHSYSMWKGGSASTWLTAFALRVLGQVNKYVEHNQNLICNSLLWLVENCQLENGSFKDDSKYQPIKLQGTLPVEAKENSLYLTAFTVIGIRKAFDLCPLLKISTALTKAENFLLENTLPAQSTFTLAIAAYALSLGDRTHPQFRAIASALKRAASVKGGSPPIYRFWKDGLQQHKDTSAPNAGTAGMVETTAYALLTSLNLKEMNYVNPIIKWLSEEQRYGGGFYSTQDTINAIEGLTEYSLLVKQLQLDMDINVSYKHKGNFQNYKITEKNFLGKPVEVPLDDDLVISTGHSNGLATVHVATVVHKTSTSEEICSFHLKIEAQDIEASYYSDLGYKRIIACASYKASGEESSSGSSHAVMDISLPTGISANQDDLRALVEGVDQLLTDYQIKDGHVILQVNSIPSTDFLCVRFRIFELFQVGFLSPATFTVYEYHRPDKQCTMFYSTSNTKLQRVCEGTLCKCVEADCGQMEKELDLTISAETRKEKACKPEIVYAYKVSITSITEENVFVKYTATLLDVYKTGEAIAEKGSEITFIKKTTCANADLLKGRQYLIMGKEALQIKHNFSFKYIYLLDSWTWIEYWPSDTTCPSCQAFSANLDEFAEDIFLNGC
Described as above. Here is the method: as §1

For the next assay, the target named is T4, cynomolgus monkey C5 (cynomolgus monkey).
T4 construct: also called cyno C5; cyno monkey C5
As to the kind of experiment: ELISA, recombinant C5 coated at 3 µg/ml, serially diluted antibody, HRP anti-IgG4 Fc detection. Here is the method: as §1

T1 sequence (P08650 19-1681 limits assumed): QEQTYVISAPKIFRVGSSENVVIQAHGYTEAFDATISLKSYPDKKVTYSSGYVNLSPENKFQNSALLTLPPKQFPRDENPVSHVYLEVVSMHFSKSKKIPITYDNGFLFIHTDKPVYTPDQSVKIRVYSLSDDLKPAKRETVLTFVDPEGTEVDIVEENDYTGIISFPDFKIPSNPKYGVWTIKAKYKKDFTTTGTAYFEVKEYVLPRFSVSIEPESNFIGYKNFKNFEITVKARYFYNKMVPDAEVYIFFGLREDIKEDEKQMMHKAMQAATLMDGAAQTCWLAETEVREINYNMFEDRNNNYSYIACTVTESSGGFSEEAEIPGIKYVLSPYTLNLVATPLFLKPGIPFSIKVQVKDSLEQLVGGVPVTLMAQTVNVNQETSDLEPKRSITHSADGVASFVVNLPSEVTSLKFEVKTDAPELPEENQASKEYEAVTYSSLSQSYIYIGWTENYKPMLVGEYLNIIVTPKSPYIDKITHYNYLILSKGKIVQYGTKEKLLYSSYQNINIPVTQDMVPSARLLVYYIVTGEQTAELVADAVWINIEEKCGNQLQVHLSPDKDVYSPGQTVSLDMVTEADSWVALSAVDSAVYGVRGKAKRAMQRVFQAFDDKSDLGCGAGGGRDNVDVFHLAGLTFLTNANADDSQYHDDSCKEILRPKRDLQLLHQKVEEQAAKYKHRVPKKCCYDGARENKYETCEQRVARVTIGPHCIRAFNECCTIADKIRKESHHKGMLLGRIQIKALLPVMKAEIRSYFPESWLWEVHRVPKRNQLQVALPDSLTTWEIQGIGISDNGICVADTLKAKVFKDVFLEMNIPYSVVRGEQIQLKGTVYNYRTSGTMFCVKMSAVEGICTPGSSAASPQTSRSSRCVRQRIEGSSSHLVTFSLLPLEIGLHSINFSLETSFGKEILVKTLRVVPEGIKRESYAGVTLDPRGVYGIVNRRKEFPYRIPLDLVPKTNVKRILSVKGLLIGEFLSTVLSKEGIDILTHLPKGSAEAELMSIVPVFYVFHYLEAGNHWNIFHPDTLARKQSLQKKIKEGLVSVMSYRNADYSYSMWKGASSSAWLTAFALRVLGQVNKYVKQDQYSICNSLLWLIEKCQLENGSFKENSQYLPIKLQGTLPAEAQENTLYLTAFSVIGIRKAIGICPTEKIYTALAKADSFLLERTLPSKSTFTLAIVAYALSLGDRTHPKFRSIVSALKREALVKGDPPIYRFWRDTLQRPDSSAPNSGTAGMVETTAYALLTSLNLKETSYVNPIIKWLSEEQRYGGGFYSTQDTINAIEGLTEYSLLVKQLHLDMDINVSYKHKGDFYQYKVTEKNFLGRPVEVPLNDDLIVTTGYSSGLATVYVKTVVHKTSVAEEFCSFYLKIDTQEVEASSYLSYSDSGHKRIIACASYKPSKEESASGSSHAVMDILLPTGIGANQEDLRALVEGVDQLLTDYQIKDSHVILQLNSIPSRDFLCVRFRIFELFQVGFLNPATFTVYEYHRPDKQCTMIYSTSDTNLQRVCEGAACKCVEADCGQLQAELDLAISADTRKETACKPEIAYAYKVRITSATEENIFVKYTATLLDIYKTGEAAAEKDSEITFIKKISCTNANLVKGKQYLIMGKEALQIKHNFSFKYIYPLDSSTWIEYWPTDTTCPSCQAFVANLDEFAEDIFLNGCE

B1: Y32H/Q38R/L54H anti-C5 mAb (antibody, human IgG4 S228P, V domains shown)
VH: QVQLVQSGAEVKKPGASVKVSCKASGYIFSNHWIQWVRQAPGQGLEWMGEILPGSGSTEYTENFKDRVTMTRDTSTSTVYMELSSLRSEDTAVYYCARYFFGSSPNWYFDVWGQGTLVTVSS
VL: DIQMTQSPSSLSASVGDRVTITCGASENIYGALNWYQRKPGKAPKLLIYGATNHADGVPSRFSGSGSGTDFTLTISSLQPEDFATYYCQNVLNTPLTFGQGTKVEIK
As for B1, the binding result with rat C5, with mouse C5 and with rabbit C5 was “no binding” throughout. Further, in the assay with cynomolgus monkey C5, the EC50 was ~0.2 µg/mL.
